Results reported in US20160136234A1.

Assays:
Experiment in all cases: cell-based or functional assay
PDK1 (h) (human) = biological target: T1, PDK1 (h) (human) (UniProt O15530)
T1 sequence (looked up): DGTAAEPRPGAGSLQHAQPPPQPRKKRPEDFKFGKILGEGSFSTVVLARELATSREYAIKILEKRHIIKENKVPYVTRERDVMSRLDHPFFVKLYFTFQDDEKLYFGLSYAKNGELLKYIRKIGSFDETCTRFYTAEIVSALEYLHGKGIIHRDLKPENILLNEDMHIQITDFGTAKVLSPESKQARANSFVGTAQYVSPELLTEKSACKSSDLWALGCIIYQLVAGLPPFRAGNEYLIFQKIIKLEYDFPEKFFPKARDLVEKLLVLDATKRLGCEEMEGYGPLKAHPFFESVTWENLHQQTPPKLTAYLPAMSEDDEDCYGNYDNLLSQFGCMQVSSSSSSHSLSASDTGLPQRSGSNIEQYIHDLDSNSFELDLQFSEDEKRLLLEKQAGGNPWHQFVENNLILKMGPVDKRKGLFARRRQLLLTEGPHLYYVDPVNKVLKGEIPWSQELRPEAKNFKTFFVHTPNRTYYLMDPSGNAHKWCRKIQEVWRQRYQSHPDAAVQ

PDGFRα (h) (human) = PDGFRα (h) (human) (UniProt P16234)
Met (h) (human) = Met (h) (human) (UniProt P08581)
Mnk2 (h) (human) = Mnk2 (h) (human) (UniProt Q9HBH9)
GSK3β (h) (human) = GSK3β (h) (human) (UniProt P49841)
Src(T341M) (h) (human) = Src(T341M) (h) (human) (UniProt P12931)
[1] = biological target: EGFR(T790M, L858R) (h) (human) (UniProt P00533)
SAPK2a (h) (human) = SAPK2a (h) (human) (UniProt Q16539)
cSRC (h) (human) = cSRC (h) (human) (UniProt P12931)
PKA (h) (human) = PKA (h) (human) (UniProt P17612)
EphB1 (h) (human) = EphB1 (h) (human) (UniProt P54762)
EphA8 (h) (human) = biological target: T2, EphA8 (h) (human) (UniProt P29322)
T2 sequence (looked up): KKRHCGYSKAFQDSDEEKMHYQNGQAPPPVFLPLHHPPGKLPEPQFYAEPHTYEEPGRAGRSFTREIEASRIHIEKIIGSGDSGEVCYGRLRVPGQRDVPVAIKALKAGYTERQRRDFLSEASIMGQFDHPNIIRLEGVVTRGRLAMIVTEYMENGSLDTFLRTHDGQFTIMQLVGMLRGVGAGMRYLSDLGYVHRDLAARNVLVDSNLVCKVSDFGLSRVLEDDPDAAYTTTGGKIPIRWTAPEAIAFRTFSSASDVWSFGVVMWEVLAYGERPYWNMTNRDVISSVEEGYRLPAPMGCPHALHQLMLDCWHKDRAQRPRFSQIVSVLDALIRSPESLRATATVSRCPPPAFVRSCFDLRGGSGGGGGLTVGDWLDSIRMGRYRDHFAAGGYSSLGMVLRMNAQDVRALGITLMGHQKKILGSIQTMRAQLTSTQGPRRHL

mTOR/FKBP12 (h) (human) = mTOR/FKBP12 (h) (human) (UniProt P42345)
SGK2 (h) (human) = biological target: T3, SGK2 (h) (human) (UniProt Q9HBY8)
T3 sequence (looked up): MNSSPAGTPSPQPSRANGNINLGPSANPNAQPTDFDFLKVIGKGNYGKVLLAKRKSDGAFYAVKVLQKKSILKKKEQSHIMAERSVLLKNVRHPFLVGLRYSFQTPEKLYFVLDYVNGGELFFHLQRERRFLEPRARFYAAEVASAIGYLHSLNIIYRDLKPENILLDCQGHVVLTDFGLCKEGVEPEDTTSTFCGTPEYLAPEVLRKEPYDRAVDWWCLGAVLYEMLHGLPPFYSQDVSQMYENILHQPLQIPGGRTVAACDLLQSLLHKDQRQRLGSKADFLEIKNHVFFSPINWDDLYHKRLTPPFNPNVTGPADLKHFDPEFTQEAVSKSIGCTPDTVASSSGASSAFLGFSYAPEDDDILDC

Axl (h) (human) = biological target: T4, Axl (h) (human) (UniProt P30530)
T4 sequence (looked up): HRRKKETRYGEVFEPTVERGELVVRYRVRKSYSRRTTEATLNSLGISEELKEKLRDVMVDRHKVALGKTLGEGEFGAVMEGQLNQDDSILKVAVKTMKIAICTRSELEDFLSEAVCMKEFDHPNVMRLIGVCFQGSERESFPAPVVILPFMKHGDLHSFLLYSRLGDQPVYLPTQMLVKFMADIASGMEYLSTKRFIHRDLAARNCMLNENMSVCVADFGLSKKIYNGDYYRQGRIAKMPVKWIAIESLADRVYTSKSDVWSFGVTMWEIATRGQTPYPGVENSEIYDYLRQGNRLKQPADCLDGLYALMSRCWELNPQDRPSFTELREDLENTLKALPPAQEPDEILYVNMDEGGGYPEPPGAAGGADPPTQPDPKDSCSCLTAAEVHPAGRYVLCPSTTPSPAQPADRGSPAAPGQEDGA

PDGFRα (h) (human), sequence (P16234 550-1089 limits assumed): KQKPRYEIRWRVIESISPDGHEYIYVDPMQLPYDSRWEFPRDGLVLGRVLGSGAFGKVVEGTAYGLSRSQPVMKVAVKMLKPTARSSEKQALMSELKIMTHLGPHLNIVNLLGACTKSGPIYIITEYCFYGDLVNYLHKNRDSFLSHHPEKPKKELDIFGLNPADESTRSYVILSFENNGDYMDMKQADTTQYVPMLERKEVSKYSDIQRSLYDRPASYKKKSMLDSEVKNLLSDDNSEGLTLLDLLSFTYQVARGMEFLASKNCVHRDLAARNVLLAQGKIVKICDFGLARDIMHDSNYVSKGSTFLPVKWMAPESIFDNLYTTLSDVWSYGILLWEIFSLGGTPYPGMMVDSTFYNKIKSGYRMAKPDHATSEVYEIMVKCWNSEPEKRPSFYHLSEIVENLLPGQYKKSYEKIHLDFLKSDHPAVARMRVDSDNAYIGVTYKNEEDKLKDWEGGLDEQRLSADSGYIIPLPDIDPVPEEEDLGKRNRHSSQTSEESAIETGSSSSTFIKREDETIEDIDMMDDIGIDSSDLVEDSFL
Met (h) (human), sequence (P08581 956-1390 limits assumed): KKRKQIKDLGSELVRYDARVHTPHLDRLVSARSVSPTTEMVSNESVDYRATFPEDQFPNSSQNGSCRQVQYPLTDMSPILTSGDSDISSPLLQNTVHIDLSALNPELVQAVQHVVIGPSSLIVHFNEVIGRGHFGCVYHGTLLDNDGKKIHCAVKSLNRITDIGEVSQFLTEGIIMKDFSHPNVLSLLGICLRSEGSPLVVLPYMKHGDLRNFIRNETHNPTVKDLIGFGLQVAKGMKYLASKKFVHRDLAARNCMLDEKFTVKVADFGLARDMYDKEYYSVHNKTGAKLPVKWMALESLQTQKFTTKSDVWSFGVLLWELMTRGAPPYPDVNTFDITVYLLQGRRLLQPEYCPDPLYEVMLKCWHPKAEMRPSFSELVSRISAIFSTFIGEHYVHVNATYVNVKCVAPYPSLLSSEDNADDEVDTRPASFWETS
mTOR/FKBP12 (h) (human), sequence (P42345 1362-2549 limits assumed, chain 1 of 2): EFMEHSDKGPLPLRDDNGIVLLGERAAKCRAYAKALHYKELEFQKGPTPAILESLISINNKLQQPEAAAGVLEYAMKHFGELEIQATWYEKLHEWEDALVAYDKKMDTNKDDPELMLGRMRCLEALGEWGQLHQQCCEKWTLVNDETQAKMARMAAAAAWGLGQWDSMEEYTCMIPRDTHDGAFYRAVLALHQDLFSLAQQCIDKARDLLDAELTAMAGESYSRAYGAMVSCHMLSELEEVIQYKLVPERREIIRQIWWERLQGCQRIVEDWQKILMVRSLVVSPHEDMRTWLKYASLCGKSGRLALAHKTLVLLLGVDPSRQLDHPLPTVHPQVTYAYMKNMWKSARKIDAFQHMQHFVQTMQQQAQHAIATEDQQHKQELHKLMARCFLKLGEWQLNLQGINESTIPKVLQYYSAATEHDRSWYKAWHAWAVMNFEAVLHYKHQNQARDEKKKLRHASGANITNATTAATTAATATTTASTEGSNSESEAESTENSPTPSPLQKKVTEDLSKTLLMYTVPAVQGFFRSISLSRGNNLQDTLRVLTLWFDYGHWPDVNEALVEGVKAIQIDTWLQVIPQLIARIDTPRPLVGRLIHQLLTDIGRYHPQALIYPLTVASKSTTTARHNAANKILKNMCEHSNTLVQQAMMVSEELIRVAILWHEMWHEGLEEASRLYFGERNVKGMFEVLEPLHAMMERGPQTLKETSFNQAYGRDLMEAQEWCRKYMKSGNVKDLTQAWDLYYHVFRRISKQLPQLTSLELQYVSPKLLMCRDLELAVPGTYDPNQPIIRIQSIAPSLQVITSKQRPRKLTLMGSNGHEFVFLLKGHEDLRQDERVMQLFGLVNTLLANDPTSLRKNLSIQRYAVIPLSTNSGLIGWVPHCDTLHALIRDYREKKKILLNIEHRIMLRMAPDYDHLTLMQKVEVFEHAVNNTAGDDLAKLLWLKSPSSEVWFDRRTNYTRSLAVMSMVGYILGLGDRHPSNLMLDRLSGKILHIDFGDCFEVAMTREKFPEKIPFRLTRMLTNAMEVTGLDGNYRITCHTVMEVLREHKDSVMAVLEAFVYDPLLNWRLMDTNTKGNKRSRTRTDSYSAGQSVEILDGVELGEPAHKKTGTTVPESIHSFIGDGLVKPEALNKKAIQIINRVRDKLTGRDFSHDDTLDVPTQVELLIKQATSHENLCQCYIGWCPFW
mTOR/FKBP12 (h) (human), sequence (P62942 whole entry, chain 2 of 2, further chain): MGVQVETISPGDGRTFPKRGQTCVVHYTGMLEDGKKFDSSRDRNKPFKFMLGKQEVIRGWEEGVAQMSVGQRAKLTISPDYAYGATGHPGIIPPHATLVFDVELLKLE
SAPK2a (h) (human), sequence (Q16539 whole entry): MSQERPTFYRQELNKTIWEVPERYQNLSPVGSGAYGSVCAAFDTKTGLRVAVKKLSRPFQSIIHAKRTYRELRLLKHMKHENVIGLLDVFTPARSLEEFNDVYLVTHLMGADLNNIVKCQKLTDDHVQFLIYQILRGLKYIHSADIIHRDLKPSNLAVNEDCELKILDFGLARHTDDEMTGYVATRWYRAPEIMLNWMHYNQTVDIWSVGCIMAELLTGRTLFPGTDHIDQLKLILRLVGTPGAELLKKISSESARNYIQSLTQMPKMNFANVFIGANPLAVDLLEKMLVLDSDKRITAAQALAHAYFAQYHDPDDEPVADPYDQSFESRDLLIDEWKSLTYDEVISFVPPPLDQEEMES
EphB1 (h) (human), sequence (P54762 564-984 limits assumed): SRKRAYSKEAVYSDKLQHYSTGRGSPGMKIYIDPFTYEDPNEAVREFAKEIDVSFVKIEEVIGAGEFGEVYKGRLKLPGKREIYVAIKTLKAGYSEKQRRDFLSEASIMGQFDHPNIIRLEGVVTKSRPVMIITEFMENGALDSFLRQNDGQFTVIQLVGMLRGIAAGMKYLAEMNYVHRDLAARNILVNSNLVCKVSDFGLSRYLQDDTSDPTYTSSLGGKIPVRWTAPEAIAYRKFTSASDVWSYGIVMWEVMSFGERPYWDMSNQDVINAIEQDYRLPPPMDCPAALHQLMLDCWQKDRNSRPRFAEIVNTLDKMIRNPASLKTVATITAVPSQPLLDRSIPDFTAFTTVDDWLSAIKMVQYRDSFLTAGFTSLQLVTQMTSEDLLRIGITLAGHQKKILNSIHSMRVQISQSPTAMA

In the case of MMI-0300 (peptide), the % activity at 100 µM (PDK1 (h) (human)) was 135%, the % activity at 100 µM (PDGFRα (h) (human)) was 65% and the % activity at 100 µM (Met (h) (human)) was 65%. The % activity at 100 µM (Mnk2 (h) (human)) was 89%, the % activity at 100 µM (GSK3β (h) (human)) was 205% and the % activity at 100 µM (Src(T341M) (h) (human)) was 70%. For the same substance, the % activity at 100 µM [1] was 85%, the % activity at 100 µM (SAPK2a (h) (human)) was 90% and the % activity at 100 µM (cSRC (h) (human)) was 26%. It also gave a % activity at 100 µM (PKA (h) (human)) of 119%, a % activity at 100 µM (EphB1 (h) (human)) of 44% and a % activity at 100 µM (EphA8 (h) (human)) of 93%. The % activity at 100 µM (mTOR/FKBP12 (h) (human)) was 145%, the % activity at 100 µM (SGK2 (h) (human)) was 56% and the % activity at 100 µM (Axl (h) (human)) was 52%.
